Numbering of substitutions follows the chain as printed.
B1: mouse monoclonal antibody 2E6 (IgG1) (antibody, V domains shown)
VH: QVQLKGSGPGLVAPSQSLSITCTVSGFSLTGYGVNWVRQPPGKGLEWLGMIWGDGSTDYNSALKSRLSISKDNSKSQVFLKMNSLQTDDTARYYCARVGDYGDYFDYWGQGTTLTVSS
VL: DIQMTQSPASLSASVGETVTITCRASENIYSYLAWYQQKQGKSPQLLVYNAKTLAEGVPSRFSGSGSGTQFSLKINSLQPEDFGSYYCQHHYGTPWFGGGTKLEIK
B2: mouse monoclonal antibody 4C2 (IgG1) (antibody, V domains shown)
VH: DVKLVESGGGLVKPGGSLKLSCAASGFTFSSYTMSWVRQTPEKRLEWVATISSGGSYTYYPDSVKGRFTISRDNAKNTLYLQMSSLKSEDTAMYYCTRDGNDYDYWGQGTTLTVSS
VL: DIQMTQTTSSLSASLGDRVTISCRASQDISNYLNWYQQKPDGTVKLLIYYTSRLHSGVPSRFSGSGSGTDYSLTISNLEQEDIATYFCQQGNTLPRTFGGGTKLEIK
B3: humanized 4C2 (4C2h), full-length antibody (antibody, V domains shown)
VH: B2 VH with D1Q, K3Q, V5Q, E42D, T97A, T111M, L112V
VL: DIQLTQSPSSLSASIGDRVTITCQASQDISNYLNWYQQRPGQAPKLLIYYTSRLHSGVPSRFSGRGSGTSFTIAINSFQAEDIGTYFCQQGNTLPRTFGGGTRVEIK

Each binder was assayed against MERS-CoV spike receptor-binding domain (spike residues 367-606), hexa-His tagged (MERS-CoV, isolate EMC/2012 (GenBank …)) (assay: SPR).
With B1 the Kd was 60.3 nM.
B2 was tested, and the Kd was 162 nM.
Work on B3 yielded a Kd of about 217 nM.
